This assay has as its target human wild-type D3R (HASS-FLAG-EGFP-3C protease-D3R in pcDNA4/TO) (human) (UniProt P35462).
UniProt P35462, sequence (P35462 whole entry): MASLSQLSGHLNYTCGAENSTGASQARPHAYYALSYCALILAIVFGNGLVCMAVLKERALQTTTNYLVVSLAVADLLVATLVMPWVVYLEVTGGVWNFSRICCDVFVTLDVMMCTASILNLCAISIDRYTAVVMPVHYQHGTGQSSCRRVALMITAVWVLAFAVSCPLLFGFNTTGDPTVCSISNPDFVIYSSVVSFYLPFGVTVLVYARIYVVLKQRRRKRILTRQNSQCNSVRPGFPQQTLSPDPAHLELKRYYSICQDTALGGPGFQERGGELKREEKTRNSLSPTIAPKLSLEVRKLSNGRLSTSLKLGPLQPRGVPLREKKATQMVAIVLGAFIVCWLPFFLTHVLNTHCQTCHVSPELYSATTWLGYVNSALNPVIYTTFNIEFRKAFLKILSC

Regarding “GαOA-RLuc8 (from UniProt P09471 1-354) (natural protein)”, the potency of FOB02-04A at D3R in the TRUPATH BRET2 assay in HEK293T cells, GOA against Gi1 is 135 fold.

The record behind these values is paper PMC11377762.
